pKd: −log10 of the molar value.
Molecular target: nucleolin on surface of HCT116 p53-/- cells (Homo sapiens) (UniProt P19338)
Test: flow
Conditions: 2'-F pyrimidines, unit inferred

nucleolin on surface of HCT116 p53-/- cells (Homo sapiens), sequence (P19338 2-710): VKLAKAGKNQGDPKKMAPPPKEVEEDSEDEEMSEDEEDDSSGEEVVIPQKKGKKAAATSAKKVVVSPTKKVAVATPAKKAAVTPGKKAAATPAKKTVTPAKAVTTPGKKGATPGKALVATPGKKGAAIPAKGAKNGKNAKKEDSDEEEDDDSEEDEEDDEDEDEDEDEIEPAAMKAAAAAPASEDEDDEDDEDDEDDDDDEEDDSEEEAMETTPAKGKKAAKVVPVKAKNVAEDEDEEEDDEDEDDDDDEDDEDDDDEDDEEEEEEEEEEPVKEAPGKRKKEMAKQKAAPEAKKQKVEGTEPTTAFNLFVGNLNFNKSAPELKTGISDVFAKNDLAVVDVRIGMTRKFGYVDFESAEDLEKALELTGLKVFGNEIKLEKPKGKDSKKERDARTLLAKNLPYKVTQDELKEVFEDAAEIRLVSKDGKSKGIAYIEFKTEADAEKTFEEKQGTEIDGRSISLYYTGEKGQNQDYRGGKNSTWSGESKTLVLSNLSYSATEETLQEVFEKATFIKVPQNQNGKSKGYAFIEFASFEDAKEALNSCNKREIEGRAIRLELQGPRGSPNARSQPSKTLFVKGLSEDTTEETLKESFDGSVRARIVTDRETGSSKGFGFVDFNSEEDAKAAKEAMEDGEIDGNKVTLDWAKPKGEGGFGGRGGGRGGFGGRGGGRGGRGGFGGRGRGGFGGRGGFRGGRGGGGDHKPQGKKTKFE

| Sequence | pKd (DL650-labeled Ev5, HCT116 p53-/- cells, Bmax 2.064) | pKd (DL650-labeled Ev3, HCT116 p53-/- cells, Bmax 3.214) |
| --- | --- | --- |
| GGAAGAGGGAUGGGCACGGUCCAGCGCUAACUGUACCUGCUGUGCCACCCACC [Ev5] | 7.29 |  |
| GGGAGAGAGGAAGAGGGAUGGGCACGGUCCAGCGCUAACUGUACCUGCUGUGCCACCCACCG [Ev3] |  | 6.92 |

Reference: patent US20200283773
